Laboratory results taken from US8318206.

What was measured:
[1] = system: fluorenyl-9-methoxycarbonyl (Fmoc)-SSFYSGGGC-CONH2
[2] = system: T1, Fmoc-Gly-Phe-Cys-NH2 (peptide 1)
T1 sequence: GFC

| Substance | dispersion of the aggregate (percentage change in intensity against time) [1] | disassembly of nanoparticle aggregate [2] |
| --- | --- | --- |
| Prostate Specific Antigen (PSA) | Discrimination of PSA concentration is seen after 5 min |  |
| trypsin |  | 8.5 nm gold particles functionalised with Fmoc-Gly-Phe-Cys-NH2 did not disassemble upon introduction of trypsin |
